B1: Thioredoxin (Synechocystis sp. (strain PCC 6803 / Kazusa)), P52231 (parent)
chain: MSATPQVSDASFKEDVLDSELPVLVDFWAPWCGPCRMVAPVVDEISQQYEGKVKVVKLNTDENPNTASQYGIRSIPTLMIFKGGQRVDMVVGAVPKTTLASTLEKYL
partner: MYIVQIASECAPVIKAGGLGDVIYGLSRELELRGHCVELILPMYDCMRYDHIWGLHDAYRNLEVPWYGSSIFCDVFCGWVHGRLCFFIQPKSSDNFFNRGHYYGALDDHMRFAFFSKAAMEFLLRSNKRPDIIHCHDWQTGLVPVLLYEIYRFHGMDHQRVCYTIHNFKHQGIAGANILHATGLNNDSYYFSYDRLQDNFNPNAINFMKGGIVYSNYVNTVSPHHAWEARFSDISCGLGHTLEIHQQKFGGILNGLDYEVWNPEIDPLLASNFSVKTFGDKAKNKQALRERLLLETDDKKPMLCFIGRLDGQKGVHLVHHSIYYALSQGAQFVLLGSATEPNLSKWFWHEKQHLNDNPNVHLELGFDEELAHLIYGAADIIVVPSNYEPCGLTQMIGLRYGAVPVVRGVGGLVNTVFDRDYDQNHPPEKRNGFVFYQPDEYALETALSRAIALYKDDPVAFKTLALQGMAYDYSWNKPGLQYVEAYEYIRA
B2: Thioredoxin (Synechocystis sp. (strain PCC 6803 / Kazusa)), P52231 (parent)
chain: B1 chain
partner: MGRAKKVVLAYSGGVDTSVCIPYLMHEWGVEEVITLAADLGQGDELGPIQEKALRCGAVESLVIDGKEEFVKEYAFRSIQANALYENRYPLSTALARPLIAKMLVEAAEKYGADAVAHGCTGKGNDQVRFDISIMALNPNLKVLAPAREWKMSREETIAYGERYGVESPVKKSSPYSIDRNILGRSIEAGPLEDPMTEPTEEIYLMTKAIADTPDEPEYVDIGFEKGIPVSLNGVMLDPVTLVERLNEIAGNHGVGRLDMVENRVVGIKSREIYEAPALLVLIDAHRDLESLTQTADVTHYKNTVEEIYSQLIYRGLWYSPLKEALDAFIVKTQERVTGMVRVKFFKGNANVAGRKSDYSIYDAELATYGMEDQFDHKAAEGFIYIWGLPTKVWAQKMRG
B3: Thioredoxin (Synechocystis sp. (strain PCC 6803 / Kazusa)), P52231 (parent)
chain: B1 chain
partner: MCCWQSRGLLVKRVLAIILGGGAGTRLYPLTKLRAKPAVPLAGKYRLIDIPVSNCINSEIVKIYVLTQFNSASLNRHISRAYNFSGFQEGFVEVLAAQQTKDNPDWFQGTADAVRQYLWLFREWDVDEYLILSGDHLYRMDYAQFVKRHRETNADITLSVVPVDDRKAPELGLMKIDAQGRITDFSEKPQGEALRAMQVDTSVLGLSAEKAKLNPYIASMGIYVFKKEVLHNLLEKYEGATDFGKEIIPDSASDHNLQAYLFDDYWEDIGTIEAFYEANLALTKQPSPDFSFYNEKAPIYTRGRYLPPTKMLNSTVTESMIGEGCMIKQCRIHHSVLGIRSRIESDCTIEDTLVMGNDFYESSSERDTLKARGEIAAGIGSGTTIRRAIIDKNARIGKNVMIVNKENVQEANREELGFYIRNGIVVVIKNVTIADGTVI
B4: Thioredoxin (Synechocystis sp. (strain PCC 6803 / Kazusa)), P52231 (parent)
chain: B1 chain
partner: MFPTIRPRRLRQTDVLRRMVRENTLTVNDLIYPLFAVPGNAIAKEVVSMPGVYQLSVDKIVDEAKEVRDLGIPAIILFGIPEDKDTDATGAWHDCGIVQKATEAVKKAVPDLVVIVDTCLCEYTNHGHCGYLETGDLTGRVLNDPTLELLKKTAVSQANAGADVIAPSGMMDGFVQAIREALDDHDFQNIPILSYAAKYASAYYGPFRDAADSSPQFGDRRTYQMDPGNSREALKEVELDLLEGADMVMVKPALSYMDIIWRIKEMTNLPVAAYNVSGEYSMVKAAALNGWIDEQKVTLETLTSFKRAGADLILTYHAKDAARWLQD
B5: Thioredoxin (Synechocystis sp. (strain PCC 6803 / Kazusa)), P52231 (parent)
chain: B1 chain
partner: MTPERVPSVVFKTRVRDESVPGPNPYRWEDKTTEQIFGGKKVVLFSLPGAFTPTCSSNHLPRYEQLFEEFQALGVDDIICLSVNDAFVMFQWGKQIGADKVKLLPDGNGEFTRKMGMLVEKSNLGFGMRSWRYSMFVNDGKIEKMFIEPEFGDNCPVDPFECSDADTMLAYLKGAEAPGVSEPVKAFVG

Variants of: B1
Conditions: with glga2_syny3 glgA2, P72623

Q: Which “effect of a mutation on the interaction” value does the source give for C35S here?
A: increasing interaction

Variants of: B2
Conditions: with assy_syny3 argG

Q: Which “effect of a mutation on the interaction” value does the source give for C35S here?
A: increasing interaction

Variants of: B3
Conditions: with glgc_syny3 glgC

Q: With C35S as the variant, how does the “effect of a mutation on the interaction” value read?
A: increasing interaction

Variants of: B4
Conditions: with hem2_syny3 hemB

Q: C35S was tested. Which “effect of a mutation on the interaction” value did it give?
A: increasing interaction

Variants of: B5
Conditions: with prx5_syny3 prx5, P73728

Q: Which “effect of a mutation on the interaction” value does the source give for C35S here?
A: increasing interaction

Reference: IntAct's records for PubMed 14673118
